US11547761B1, “Antibody adjuvant conjugates” (The Board of Trustees of the Leland Stanford Junior …, priority 2016, dated 2023)

System: human APCs (myeloid cells)
Test: APC-tumor co-culture / myeloid cell stimulation, surface markers by flow cytometry
Type: cell-based
Conditions: 18 hours of stimulation
Excerpt: Human antigen presenting cells (APCs) were negatively selected from human peripheral blood mononuclear cells obtained from healthy blood donors (Stanford Blood Center) by density gradient centrifugation using a RosetteSep Human Monocyte Enrichment Cocktail (Stem Cell Technologies) containing monoclonal antibodies against CD2, CD3, CD8, CD19, CD56, CD66b and CD235a. Immature APCs were subsequently purified to >97% purity via negative selection using an EasySep Human Monocyte Enrichment Kit without CD16 depletion containing monoclonal antibodies against CD2, CD3, CD19, CD20, CD56, CD66b, CD123 and CD235a.
Tumor cells were resuspended in PBS with 0.1% fetal bovine serum (FBS) at 1 to 10×10^6 cells/mL. Cells were subsequently incubated with 2 μM CFSE to yield a final concentration of 1 μM. […]
2×10^5 APCs were incubated with or without 6.5×10^5 autologous or allogeneic CFSE-labeled tumor cells in 96-well plates (Corning) containing IMDM medium (Gibco) supplemented with 10% fetal bovine serum, 100 U/mL penicillin, 100 μg/mL streptomycin, 2 mM L-glutamine, sodium pyruvate, non-essential amino acids, 50 μM 2-ME and, where indicated, various concentrations of anti-tumor antibody and the indicated adjuvants. Cells and cell-free supernatants were analyzed after 18 hours via flow cytometry. […]

B1: Nivolumab IgG1 immunoconjugate (conjugate, chains of the INN, looked up)
VH: QVQLVESGGGVVQPGRSLRLDCKASGITFSNSGMHWVRQAPGKGLEWVAVIWYDGSKRYYADSVKGRFTISRDNSKNTLFLQMNSLRAEDTAVYYCATNDDYWGQGTLVTVSS
VL: EIVLTQSPATLSLSPGERATLSCRASQSVSSYLAWYQQKPGQAPRLLIYDASNRATGIPARFSGSGSGTDFTLTISSLEPEDFAVYYCQQSSNWPRTFGQGTKVEIK
modifications: IgG1 adjuvant immunoconjugate
In the case of B1, the “APC / myeloid / dendritic cell activation (overall)” value is reported as “very potent”.
